Patent US20070086956A1, “Method for accelerating the rate of mucociliary clearance” (BAYER AKTIENGESELLSCHAFT, priority 1998, published 2007)

System: sheep airways
Assay: Tracheal mucus velocity in the sheep
Type: in vivo
Method: The aim of this study was to investigate the effect of the Kunitz family serine protease inhibitor Bikunin (1-170) described in Example 17 on sheep trachcal mucus velocity over 8 hours after treatment. This agent was delivered by nebulised aerosol administration to the airways. The procedure used in this example is described in O'Riordan et al., J. Applied Physiol. 85(3), 1086-1091, 1998.
Adult ewes were restrained in an upright position, with their heads immobilized, in a specialized body harness. They were nasally intubated with an endotracheal tube, with the cuff placed just below the vocal cords. The inspired air was warmed and humidified. To minimize possible impairment of TMV caused by inflated cuffs, the endotracheal tube cuff remained deflated throughout the study except for the period of aerosol administration.
To measure TMV 5 to 10 radiopaque Teflon particles (approximately 1 mm in diameter, 0.8 mm thick, and weighing 1.5 to 2 mg) were insufflated into the trachea via a catheter placed within the endotracheal tube. The movement of the Teflon particles was then measured over a 1 minute period. The procedure used in this example is described in Russi et al., J. Applied Physiol. 59(5), 1416-1422, 1985. A collar containing radiopaque markers of known length was applied to the exterior of the animals and used as a standard to convert distance traversed by the particles on the video screen to actual distance traveled. TMV was calculated from the average distance in a cephalad direction traveled per minute for 5 to 10 Teflon particles. Baseline TMV was measured immediately prior to administration of aerosol.
Test substances; PBS, 1 mg/mL Bikunin in PBS, or 3 mg/mL Bikunin in PBS; were delivered to the sheep airways as an aerosol (3 mL) generated using a Raindrop jet nebuliser operated at a flow rate that produced droplets of mass median aerodynamic diameter of 3.6 um. […]

B1: CHO Bikunin (1-170): Glycosylated placental bikunin (1-170), SEQ ID NO: 52, expressed in Chinese hamster ovary cells (Example 17) (protein, listed as Homo sapiens)
chain: ADRERSIHDFCLVSKVVGRCRASMPRWWYNVTDGSCQLFVYGGCDGNSNNYLTKEECLKKCATVTENATGDLATSRNAADSSVPSAPRRQDSEDHSSDMFNYEEYCTANAVTGPCRASFPRWYFDVERNSCNNFIYGGCRGNKNSYRSEEACMLRCFRQQENPPLPLGSK
modifications: glycosylated, CHO-expressed
In the case of B1, the TMV (3 mg aerosol (3 mL of 1 mg/mL), any time point versus vehicle) is reported as “no significant differences”, the TMV (9 mg aerosol (3 mL of 3 mg/mL), at 0, 0.5, 3, 4, 5, 6, 7, and 8 hours versus PBS vehicle, FIG. 22) is reported as “significantly increased TMV” and the TMV (9 mg aerosol, at 24 hours) is reported as “returned to baseline rates”.
